B1: FBXO3 (other, not shown: small tags and cut ends)
chain: MAAMETETAPLTLESLPTDPLLLILSFLDYRDLINCCYVSRRLSQLSSHDPLWRRHCKKYWLISEEEKTQKNQCWKSLFIDTYSDVGRYIDHYAAIKKAWDDLKKYLEPRCPRMVLSLKEGAREEDLDAVEAQIGCKLPDDYRCSYRIHNGQKLVVPGLLGSMALSNHYRSEDLLDVDTAAGGFQQRQGLKYCLPLTFCIHTGLSQYIAVEAAEGRNKNEVFYQCPDQMARNPAAIDMFIIGATFTDWFTSYVKNVVSGGFPIIRDQIFRYVHDPECVATTGDITVSVSTSFLPELSSVHPPHYFFTYRIRIEMSKDALPEKACQLDSRYWRITNAKGDVEEVQGPGVVGEFPIISPGRVYEYTSCTTFSTTSGYMEGYYTFHFLYFKDKIFNVAIPRFHMACPTFRVSIARLEMGPDEYEEMEEEEEEEEEEDEDDDSADMDESDEDDEEERRRRVFDVPIRRRRCSRLF
notes: TAP-MS bait
B2: FBXO31 (other, not shown: small tags and cut ends)
chain: MAVCARLCGVGPSRGCRRRQQRRGPAETAAADSEPDTDPEEERIEASAGVGGGLCAGPSPPPPRCSLLELPPELLVEIFASLPGTDLPSLAQVCTKFRRILHTDTIWRRRCREEYGVCENLRKLEITGVSCRDVYAKLLHRYRHILGLWQPDIGPYGGLLNVVVDGLFIIGWMYLPPHDPHVDDPMRFKPLFRIHLMERKAATVECMYGHKGPHHGHIQIVKKDEFSTKCNQTDHHRMSGGRQEEFRTWLREEWGRTLEDIFHEHMQELILMKFIYTSQYDNCLTYRRIYLPPSRPDDLIKPGLFKGTYGSHGLEIVMLSFHGRRARGTKITGDPNIPAGQQTVEIDLRHRIQLPDLENQRNFNELSRIVLEVRERVRQEQQEGGHEAGEGRGRQGPRESQPSPAQPRAEAPSKGPDGTPGEDGGEPGDAVAAAEQPAQCGQGQPFVLPVGVSSRNEDYPRTCRMCFYGTGLIAGHGFTSPERTPGVFILFDEDRFGFVWLELKSFSLYSRVQATFRNADAPSPQAFDEMLKNIQSLTS
notes: TAP-MS bait
B3: FBXL2 (other, not shown: small tags and cut ends)
chain: MVFSNNDEGLINKKLPKELLLRIFSFLDIVTLCRCAQISKAWNILALDGSNWQRIDLFNFQTDVEGRVVENISKRCGGFLRKLSLRGCIGVGDSSLKTFAQNCRNIEHLNLNGCTKITDSTCYSLSRFCSKLKHLDLTSCVSITNSSLKGISEGCRNLEYLNLSWCDQITKDGIEALVRGCRGLKALLLRGCTQLEDEALKHIQNYCHELVSLNLQSCSRITDEGVVQICRGCHRLQALCLSGCSNLTDASLTALGLNCPRLQILEAARCSHLTDAGFTLLARNCHELEKMDLEECILITDSTLIQLSIHCPKLQALSLSHCELITDDGILHLSNSTCGHERLRVLELDNCLLITDVALEHLENCRGLERLELYDCQQVTRAGIKRMRAQLPHVKVHAYFAPVTPPTAVAGSGQRLCRCCVIL
notes: TAP-MS bait
B4: EMI1 (other, not shown: small tags and cut ends)
chain: MSRRPCSCALRPPRCSCSASPSAVTAAGRPRPSDSCKEESSTLSVKMKCDFNCNHVHSGLKLVKPDDIGRLVSYTPAYLEGSCKDCIKDYERLSCIGSPIVSPRIVQLETESKRLHNKENQHVQQTLNSTNEIEALETSRLYEDSGYSSFSLQSGLSEHEEGSLLEENFGDSLQSCLLQIQSPDQYPNKNLLPVLHFEKVVCSTLKKNAKRNPKVDREMLKEIIARGNFRLQNIIGRKMGLECVDILSELFRRGLRHVLATILAQLSDMDLINVSKVSTTWKKILEDDKGAFQLYSKAIQRVTENNNKFSPHASTREYVMFRTPLASVQKSAAQTSLKKDAQTKLSNQGDQKGSTYSRHNEFSEVAKTLKKNESLKACIRCNSPAKYDCYLQRATCKREGCGFDYCTKCLCNYHTTKDCSDGKLLKASCKIGPLPGTKKSKKNLRRL
notes: TAP-MS bait

biological target: T1, LRP5 (endogenous) (human, UniProt O75197 32-1615); test: TAP + mass spectrometry, HEK293 cells
T1 construct: whole, on cells
T1 sequence (O75197 32-1615): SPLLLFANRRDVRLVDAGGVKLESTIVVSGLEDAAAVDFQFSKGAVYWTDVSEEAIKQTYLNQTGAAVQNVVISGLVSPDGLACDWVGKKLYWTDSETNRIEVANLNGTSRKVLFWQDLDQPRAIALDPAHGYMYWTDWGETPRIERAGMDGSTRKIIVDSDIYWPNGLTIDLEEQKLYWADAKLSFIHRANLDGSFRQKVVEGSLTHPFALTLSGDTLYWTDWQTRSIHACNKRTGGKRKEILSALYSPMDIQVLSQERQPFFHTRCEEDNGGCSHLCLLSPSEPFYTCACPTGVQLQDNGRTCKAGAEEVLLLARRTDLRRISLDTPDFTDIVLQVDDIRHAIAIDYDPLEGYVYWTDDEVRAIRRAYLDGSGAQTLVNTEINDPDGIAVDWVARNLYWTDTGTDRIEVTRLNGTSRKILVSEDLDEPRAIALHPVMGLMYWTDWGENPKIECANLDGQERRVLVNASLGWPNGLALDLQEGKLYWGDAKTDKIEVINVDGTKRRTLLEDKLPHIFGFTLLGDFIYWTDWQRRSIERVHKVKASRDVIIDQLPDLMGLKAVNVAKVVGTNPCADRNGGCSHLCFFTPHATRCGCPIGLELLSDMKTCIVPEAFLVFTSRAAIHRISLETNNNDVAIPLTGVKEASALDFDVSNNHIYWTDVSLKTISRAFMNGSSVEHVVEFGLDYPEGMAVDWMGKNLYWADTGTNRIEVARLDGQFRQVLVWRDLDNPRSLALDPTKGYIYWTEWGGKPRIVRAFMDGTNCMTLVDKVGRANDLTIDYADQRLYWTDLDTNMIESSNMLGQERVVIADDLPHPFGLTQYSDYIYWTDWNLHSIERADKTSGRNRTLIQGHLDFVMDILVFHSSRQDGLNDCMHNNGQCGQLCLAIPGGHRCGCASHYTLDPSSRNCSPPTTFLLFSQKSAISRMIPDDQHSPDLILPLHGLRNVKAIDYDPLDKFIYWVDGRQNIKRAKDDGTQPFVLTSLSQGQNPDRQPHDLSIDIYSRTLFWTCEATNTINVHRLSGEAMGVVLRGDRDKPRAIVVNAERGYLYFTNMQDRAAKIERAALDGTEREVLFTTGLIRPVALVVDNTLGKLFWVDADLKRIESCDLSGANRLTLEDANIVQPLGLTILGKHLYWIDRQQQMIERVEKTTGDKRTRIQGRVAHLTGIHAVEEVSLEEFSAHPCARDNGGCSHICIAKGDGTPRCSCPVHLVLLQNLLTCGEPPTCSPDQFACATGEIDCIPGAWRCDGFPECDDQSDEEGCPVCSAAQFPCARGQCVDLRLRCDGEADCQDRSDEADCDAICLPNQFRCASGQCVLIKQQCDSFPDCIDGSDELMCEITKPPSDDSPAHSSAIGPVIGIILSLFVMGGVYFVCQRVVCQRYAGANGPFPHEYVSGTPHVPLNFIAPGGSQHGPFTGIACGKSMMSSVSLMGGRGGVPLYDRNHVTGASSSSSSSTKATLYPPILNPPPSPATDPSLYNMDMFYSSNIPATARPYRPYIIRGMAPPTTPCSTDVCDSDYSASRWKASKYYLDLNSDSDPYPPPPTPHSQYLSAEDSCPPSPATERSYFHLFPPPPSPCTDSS

Binding result, no binding:
B1, B2, B3, B4

biological target: T2, LRP6 (endogenous) (human, UniProt O75581 20-1613); test: TAP + mass spectrometry, HEK293 cells
T2 construct: whole, on cells
T2 sequence (O75581 20-1613): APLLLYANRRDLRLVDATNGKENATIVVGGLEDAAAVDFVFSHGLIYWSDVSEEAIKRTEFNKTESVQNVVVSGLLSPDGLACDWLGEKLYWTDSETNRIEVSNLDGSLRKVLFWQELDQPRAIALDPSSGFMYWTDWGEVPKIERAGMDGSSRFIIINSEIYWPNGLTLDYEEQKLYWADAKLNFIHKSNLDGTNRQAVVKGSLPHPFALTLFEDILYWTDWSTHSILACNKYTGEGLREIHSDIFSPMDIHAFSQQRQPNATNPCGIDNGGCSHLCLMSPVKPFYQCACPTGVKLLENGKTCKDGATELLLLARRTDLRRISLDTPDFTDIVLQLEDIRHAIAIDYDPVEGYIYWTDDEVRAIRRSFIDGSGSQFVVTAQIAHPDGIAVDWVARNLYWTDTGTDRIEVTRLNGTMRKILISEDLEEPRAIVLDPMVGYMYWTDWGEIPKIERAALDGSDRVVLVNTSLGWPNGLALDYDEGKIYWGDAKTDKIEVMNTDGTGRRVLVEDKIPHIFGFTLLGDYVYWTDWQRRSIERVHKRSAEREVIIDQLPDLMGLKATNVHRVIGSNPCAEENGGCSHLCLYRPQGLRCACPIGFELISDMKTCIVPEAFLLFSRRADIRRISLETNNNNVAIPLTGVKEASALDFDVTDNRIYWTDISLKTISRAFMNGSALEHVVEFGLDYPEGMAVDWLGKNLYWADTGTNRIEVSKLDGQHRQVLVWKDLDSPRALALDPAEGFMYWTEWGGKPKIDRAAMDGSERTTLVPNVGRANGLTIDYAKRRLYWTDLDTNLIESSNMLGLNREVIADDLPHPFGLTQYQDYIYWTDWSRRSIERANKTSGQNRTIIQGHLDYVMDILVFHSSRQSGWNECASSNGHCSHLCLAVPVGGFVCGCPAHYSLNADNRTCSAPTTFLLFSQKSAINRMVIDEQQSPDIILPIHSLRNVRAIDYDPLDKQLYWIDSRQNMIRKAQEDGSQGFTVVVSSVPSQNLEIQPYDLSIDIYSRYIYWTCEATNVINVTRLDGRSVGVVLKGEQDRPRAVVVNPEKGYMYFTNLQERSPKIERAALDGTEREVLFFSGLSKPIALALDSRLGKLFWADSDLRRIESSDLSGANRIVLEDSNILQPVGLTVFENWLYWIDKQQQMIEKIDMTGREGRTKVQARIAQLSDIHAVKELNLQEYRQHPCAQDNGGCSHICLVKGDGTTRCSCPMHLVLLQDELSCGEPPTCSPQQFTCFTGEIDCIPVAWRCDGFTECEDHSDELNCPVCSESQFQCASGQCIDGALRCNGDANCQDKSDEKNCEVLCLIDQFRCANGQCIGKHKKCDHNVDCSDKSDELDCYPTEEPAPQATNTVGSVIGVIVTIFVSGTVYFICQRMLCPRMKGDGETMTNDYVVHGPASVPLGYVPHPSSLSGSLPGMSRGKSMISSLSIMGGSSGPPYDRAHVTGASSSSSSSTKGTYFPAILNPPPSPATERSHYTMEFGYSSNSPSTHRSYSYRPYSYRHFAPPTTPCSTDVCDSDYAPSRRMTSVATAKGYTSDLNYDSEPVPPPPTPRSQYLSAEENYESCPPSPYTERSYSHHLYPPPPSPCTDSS

Binding result, no binding:
B1, B2, B3, B4

biological target: T3, Lgr4 (endogenous, or expression construct whose tag is not stated) (human, UniProt Q9BXB1 25-951); test: TAP + mass spectrometry, HEK293 cells
T3 construct: whole, on cells; Endogenous protein of HEK293T / LS174T cells in TAP-MS; also called endogenous Lgr4

Binding result, no binding:
B1, B2, B3, B4

Reference: patent US20140044713A1 (KONINKLIJKE NEDERLANDSE AKADEMIE VAN WETENSCHAPPEN, published 2014)
